Data: patent US20030103863A1, “High pressure sterilising of sensitive active principles” (priority 2000, published 2003)

Legend:
[1] = HPLC chromatography of insulin after high pressure treatment; format: physicochemical; settings: 4,000, 5,000 and 6,000 bars for 10 minutes, ambient temperature and −20° C.; analyzed at 214 nm
Protocol: b) Insulin was selected at 40 UI, commercial form, and diluted to {fraction (1/100 )} at pH 2.5. For the measurement, passage is carried out with a flow rate of 1 ml/min in an HPLC (High Pressure Liquid Chromatography) apparatus.
Different specimens were subjected, at ambient temperature and at a negative temperature of −20° C., to:
atmospheric pressure for the standard,
5,000 bars for 10 minutes, and
The specimens, after treatment, are then analyzed at 214 nm in a chromatographic apparatus with automatic injection.

[2] = HPLC purity after high pressure treatment; format: physicochemical; settings: powder, high pressure treatment at 5,000 bars
Protocol: Complementary tests were conducted to show the harmlessness of the treatment by high pressure on the fragile elements. In this case, these elements were placed in solution or in the form of powder.
a) The peptide, in this case Gramicidin, is subjected to a high pressure treatment at 5,000 bars, and its purity was also tested by HPLC, the variations remaining less than 1%. The high pressures have no influence on the structure.

## insulin
[1]
  modifications or alterations of the structure (HPLC curves vs standard at atmospheric pressure): no noticeable modifications or alterations

## gramicidin
[2]
  variations of purity by HPLC: less than 1%
